Assay in all cases: SPR
For orientation: In SPR one partner is held on a chip, and binding of the other changes the refractive index at the surface.

Assay [1] addresses T1, TRAIL (TNF-related apoptosis inducing ligand) ectodomain (UniProt P50591 39-281).
T1 construct: also called TNFSF10; Apo2L
The settings on record: one partner purified.

Assay [2] addresses T2, TRAIL (TNF-related apoptosis inducing ligand) ectodomain (UniProt P50591 39-281).
T2 construct: also called TNFSF10; Apo2L
The settings on record: one partner purified. This is another data set of the same source.

The target in assay [3] is T3, Human TRAIL-R2 ectodomain (residues 58–184), released from the Fc fusion (human, UniProt O14763 58-184, selenomethionine (only in the labelled complex of the derivative crystals)).
T3 construct: also called DR5; TRAIL-R2 receptor; not shown: Fc (human IgG1), C-terminal, cleaved
To be noted: both partners purified.

Numbering of substitutions follows the chain as printed. Names may count otherwise.

B1: human TRAIL-R2-Fc D148A (Fc fusion)
chain: QQDLAPQQRAAPQQKRSSPSEGLCPPGHHISEDGRDCISCKYGQDYSTHWNDLLFCLRCTRCDSGEVELSPCTTTRNTVCQCEEGTFREEASPEMCRKCRTGCPRGMVKVGDCTPWSDIECVHKESG
notes: source: Sf9 insect cells, culture supernatant; not shown: Fc (human IgG1), C-terminal, kept
A word on the Kd: it is the constant that tells how readily two partners part at equilibrium. In general, koff refers to the first-order rate constant of dissociation. One may read the kon as the rate constant with which the complex forms. With B1, in assay [1], the Kd was 4.48 nM, the koff amounted to 3.58e-05 s⁻¹ and the kon came out at 8000 M⁻¹ s⁻¹.

B2: Human TRAIL-R2-Fc M152A (Fc fusion)
chain: B1 chain with A91D, M95A
notes: also called TRAIL-R2 M152A mutant; source: Sf9, culture supernatant used for SPR; not shown: Fc (human IgG1), C-terminal, kept
As for B2, the dissociation constant (Kd) in assay [2] was determined as 202 nM.

B3: human TRAIL-R2-Fc P150A (Fc fusion)
chain: B1 chain with A91D, P93A
notes: as for B1
Take B3: in assay [1], the Kd stood at 4.29 nM, the koff was 9.02e-06 s⁻¹ and the association rate constant (kon) worked out at 2100 M⁻¹ s⁻¹.

B4: human TRAIL-R2-Fc M152A (Fc fusion)
chain: B1 chain with A91D, M95A
notes: as for B1
In assay [1], B4 showed a Kd of 202 nM, a koff of 0.000678 s⁻¹ and an association rate constant (kon) of 3350 M⁻¹ s⁻¹.

B5: Human TRAIL-R2-Fc K155A (Fc fusion)
chain: B1 chain with A91D, K98A
notes: source: Sf9, culture supernatant used for SPR; not shown: Fc (human IgG1), C-terminal, kept
With B5, in assay [2], the Kd was 40 nM.

B6: human TRAIL-R2-Fc K155A (Fc fusion)
chain: B1 chain with A91D, K98A
notes: as for B1
In assay [1], B6 yielded a Kd of 39.7 nM, an off-rate constant (koff) of 0.000138 s⁻¹ and an on-rate constant (kon) of 3480 M⁻¹ s⁻¹.

B7: UL141-Fc fusion protein (Fc fusion)
chain: DIAEKMWAENYETTSPAPVLVAEGEQVTIPCTVMTHSWPMVSIRARFCRSHDGSDELILDAVKGHRLMNGLQYRLPYATWNFSQLHLGQIFSLTFNVSTDTAGMYECVLRNYSHGLIMQRFVILTQLETLSRPDEPCCTPALGRYSLGDQIWSPTPWRLRNHDCGMYRGFQRNYFYIGRADAEDCWKPACPDEEPDRCWTVIQRYRLPGDCYRSQPHPPKFLPVTPAPPADIDTGMS
Take B7: in assay [3], the Kd was 21.4 nM, the koff was found to be 0.00564 s⁻¹ and the kon is 264000 M⁻¹ s⁻¹.

The values are drawn from article PMC3605307 (PLoS Pathogens, 2013).
